{
  "source": "paper PMC6778621",
  "key": {"[1]": {"biological_target": "MET-ECD-Fc-His V370D (human) (UniProt P08581)", "experiment": "SPR"}, "[2]": {"biological_target": "MET-ECD-Fc-His (WT) (human) (UniProt P08581)", "experiment": "SPR"}},
  "data": [
    {"substance": "SP domain of HGF (β-chain) (domain or fragment)", "values": [
      {"measurement": "Kd", "setting": "[1]", "result": 914, "unit": "nM"},
      {"measurement": "Kd", "setting": "[2]", "result": 858, "unit": "nM"}
    ]}
  ]
}
